Test results from the supplement of paper PMC10567573.

B1: ZNF449 (parent)
chain: EPHKCPECGKRFLRSSDLYRHQRL

Variants of: B1
Assay: protein stability index of a GFP-peptide fusion (GPS, HEK-293T) (PSI 1-6); higher = more stable
Settings: c terminus: a fixed tail appended
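Further: lentivirally expressed fusions sorted by FACS into six bins by GFP to DsRed ratio, PSI derived from sequencing read proportions per bin multiplied by bin number.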

Protein stability index: each site, then its substitutions
S16: Q 4.27 | K 3.81 | F 2.09 | H 3.55 | E 4.99 | Y 3.05 | P 2.99 | M 3.4 | I 3.26 | T 3.94 | G 3.54 | N 3.7 | L 2.72 | A 3.82 | V 3.81 | D 4.06 | C 3.62 | R 3.52 | W 2.66
D17: W 1.72 | I 2.04 | T 2.36 | G 2.58 | A 2.32 | Y 2.21 | Q 2.59 | E 3.82 | N 2.22 | F 1.68 | R 2.34 | H 2.87 | M 2.35 | L 2.81 | K 2.33 | V 1.69 | P 2.38 | S 2.61 | C 2.66
F12: W 1.93 | S 1.86 | M 2.45 | P 2.51 | Y 2.72 | R 2.15 | H 3.73 | Q 2.03 | C 1.67 | V 1.95 | D 2.13 | I 2.1 | G 2.12 | T 2.32 | A 1.86 | K 2.88 | E 2.34 | L 2.54 | N 2.06
E1: R 3.37 | D 4.06 | C 2.14 | I 2.6 | V 2.67 | Q 3.12 | L 2.81 | N 2.83 | M 2.89 | Y 3.3 | F 2.93 | A 2.84 | W 3.2 | S 2.73 | K 2.79 | T 2.6 | P 3.19 | G 3.13 | H 3.45
K10: W 2.13 | F 2.52 | G 2.11 | E 3.63 | I 3.32 | A 3.97 | V 3.31 | N 2.52 | M 3.99 | L 3.65 | R 3.55 | H 3.15 | S 3.21 | P 2.33 | Q 4.08 | T 3.5 | Y 2.5 | D 2.44 | C 2.48
C5: H 3.19 | N 3.41 | D 3.69 | M 3.06 | F 2.5 | K 4 | E 3.56 | V 2.87 | P 3.07 | T 2.79 | Y 3.14 | R 3.14 | L 3.3 | W 3.01 | G 2.63 | Q 3.6 | I 3.26 | S 3.44 | A 3.69
H3: F 4.09 | I 4.1 | P 3.33 | T 3.9 | R 3.29 | V 3.72 | D 3.23 | N 4.49 | A 3.25 | M 3.79 | G 3.02 | Y 4.7 | E 2.99 | S 2.97 | Q 3.31 | K 3.23 | C 3.58 | L 4.89 | W 4
L18: F 3.44 | N 2.67 | H 3.5 | M 3.46 | D 2.87 | E 2.92 | C 3.68 | A 3.08 | K 2.74 | I 2.52 | G 3.05
P6: L 3.38 | C 3.75 | T 3.52 | W 3.31 | G 3.5 | D 4.46 | A 3.75 | Q 3.68 | N 4.17 | S 3.69 | I 3.23 | Y 3.53 | H 3.91 | F 3.22 | M 3.88 | R 3.1 | V 3.57 | K 3.62 | E 4.19
P2: S 4.41 | F 3.17 | Q 3.53 | A 3.5 | Y 3.21 | V 3.02 | H 3.95 | T 3.52 | D 4 | W 3.22 | G 3.81 | E 3.42 | C 3.58 | N 3.37 | K 3.57 | M 3.38 | I 3.18 | R 3.54 | L 3.63
K4: C 3.86 | E 4.73 | V 4.7 | W 3.65 | D 4.36 | F 3.98 | H 4.09 | R 3.71 | A 4.5 | T 4.46 | G 3.68 | I 4.71 | S 4.13 | Y 4.47 | Q 4.57 | P 3.42 | M 4.7 | L 4.49 | N 4.09
E7: V 3.44 | I 3.3 | D 4.12 | S 4.11 | Y 3.66 | T 3.82 | F 3.25 | C 4.37 | A 3.29 | G 3.74 | L 3.51 | N 3.81 | R 3.17 | K 4.14 | H 3.65 | W 4.05 | M 3.65 | P 2.21 | Q 3.62
S15: R 3.53 | A 4.16 | W 3.52 | F 3.51 | M 3.98 | P 3.25 | H 3.64 | Y 4.03 | V 3.58 | G 3.53 | D 3.81 | C 3.42 | Q 4.11 | L 3.86 | N 3.51 | T 3.9 | E 4.54 | I 3.27 | K 4.27
C8: D 4.03 | R 3.08 | H 3.26 | E 4.02 | N 3.16 | Q 3.43 | G 3.3 | F 2.72 | P 3.51 | K 3.75 | M 3.05 | W 2.64 | A 3.24 | T 3.36 | L 3.01 | V 3.25 | I 3.06 | S 3.37 | Y 3.24
R14: C 3.86 | Y 3.59 | P 2.2 | S 4.61 | G 2.33 | A 3.89 | W 2.75 | I 2.95 | H 3.97 | K 4.11 | T 4.61 | F 3.76 | E 3.84 | M 3.61 | Q 3.36 | L 3.51 | N 4.78 | V 3.2 | D 4.29
G9: M 2.72 | I 2.65 | S 3.36 | P 2.82 | A 2.24 | Y 2.8 | T 2.32 | C 2.18 | L 2.3 | R 2.31 | N 3.14 | V 2.54 | Q 3.16 | K 2.61 | H 3.08 | F 2.52 | E 3.15 | D 2.99 | W 2.12
R11: V 4.57 | G 4 | I 4.63 | Q 4.44 | F 4.41 | D 4.27 | C 4.31 | P 3.68 | T 5.01 | N 4.24 | M 4.26 | S 5.13 | H 4.07 | K 4.16 | W 4.26 | Y 4.39 | E 4.84 | A 4.71 | L 4.57
L13: S 3.92 | F 3.35 | I 3.5 | T 4.46 | Y 4.09 | N 4.08 | A 4 | H 3.85 | E 4.78 | C 4.05 | D 4.82 | V 4.32 | K 4.5 | G 3.88 | M 4.48 | W 3.55 | R 3.99 | P 3.74 | Q 4.66
